Our source for the protein production values is a protein production outcome set (Wang et al. 2014).

A short description of this series: label from the status in PepcDB records.

Regarding “MTKILYMVVPCYNEELVLDETSERLKAKYEQLISNNIISPKSRVVYVNDGSKDKTWEKIQEKHNENPMFSGINLSRNRGHQNALLAGLMTVRNLADCVISMDADLQDDINAIDEMLEKFENENCDIVYGVRDNRDTDTVFKRRTAGAFYKLMQGLGSQSVPNHADFRLMSRRALDGLAQFPEQNLFLRGMVPLVGYKSDIVYYKRGERFAGESKYPLKKMISFALDGITSTSAAPMRLIFWIGLIWFLLAIVGAIYIIARHFINGSDVAGWASTMLAIIGFGGANLLALGVIGEYIGKIFLEVKQRPRYLIEDFINED”, the protein production result is listed as “failed”.

For the sequence “MTKLERMEHPAYSQLRPVTPSASVVLCPNPGYSSLEGTNSWVIRAPEDPRSIVIDPGPEDEGHLNVLHSKAEEVGLILLTHRHYDHADGAQRFRQLTNAPVRAMDPSYCAGAEEIHDGEIITIDGVTPQIEVVATPGHTRDSVSYFIWSGVPHESTLEGIVSGDTIAGRHTTMISETDGDLGEYLNSLAILEERGKDIPLLPGHGPDGQDVSSFARKYIERRELRLNQIREVWETRGRDVSMKDLIDAIYDDVDPVLRGAAEQSTHVAIRYLQAQEASASN”, the protein production entry was “failed”.

As to “MTKLSDRLMEIYRLINQAARVADIGTDHAAIPIALLETNKSSFLVATDIGLGPLEKAKEQIELADLDQAKQIVLRLGDGLSVIKASDKIDTVVIAGMGGELIAKIISKIPDYLKNAKFILQPNNEEIDVRKAIEKNGQYIETEKIIYENRHFYEIIVAKRSQQGIVKMTNRELRFGPCLLKHRTSTFKNKWQERLDHSKQIEKILEKSLRTSTKRYDSLQAEIKTIEEALK”, the protein production result is reported as “not failed”.

Take “MTKNDNTIFKDIYQLWFTQYKQTVKESTWVTTQRLFRLHILPIFSDYRIAKISIKDCQKAINQWFNAGLAKYHTLMNYVAKVLDYAINIDLISENPAKRVIVPVNKNDRSLEHHHHHH”: the protein production entry is reported as “not failed”.

Consider “MTKTVEMVITGAQVLNVYTREFEATSLWIDHGRIISNLRDEPYIAAQHVDATGQWIVPGMIDAHVHMESSMVAPSELGKVLLQHGVTTIATDPHELANVAGLEHHHHHH”, for which the protein production entry is “failed”.

“MTKVERLLINYKTLEEFKKFKEYGIQELSMLEELQDNIIENDSTSPFYGIYFGDKLVARMSLYQVNGKSNPYFDNRQDYLELWKLEVLPGYQNRGYGRALVEFAKSFKMPIRTNPRMKSAEFWNKMNFKTVKYDMARDKGEDPLIWHPDMDREMTPGESA”: the protein production result is on record as “not failed”.

Turning to “MTLAVTAQPALAADRGHSVPLRIATYNIHAGAGSDGVFDLDRQAAALRALDADVIGLQEVDVHWGARSQGLDVAGELARRLGMRVSFAPIYSLDPVTAGEPRREYGVAVLSRFPVRSATNHEITRLSTQDENPLPAPAPGFGEVTLKVRGVPVQVFVTHLDYRADPAVRRAQVADTRRIMARERAELPGAHQFLLGDFNAEPAAPELAPLWKELSDAGAGTPATYPAQAPVKRIDYVTAGKDVRIRRTAVPEEPAASDHRPVVADVSLPRRTPGRD”, the protein production result is “failed”.

With “MTLDLFAPQPKTNLLPYDGDVEDYGCFISTAEAEQYFQYFLKHLAWRHDEARLYGKHFITPRQVAWYGDDHYRYAYSGIMRDSLPWDPQLLILKQQIEQTLAERFNSCLANLYQEGTQGMAWHSDGDMSLAKQTTIASLSLGATRKFCFRHLRTKEKIEMQLQSGQLIVMRGETQQHWQHAIMKSQKVIHPRINLTFRQFLLLEHHHHHH”, the protein production result was “failed”.

Consider “MTLEWEEFLDPYIQAVGELKIKLRGIRKQYRKQNKHSPIEFVTGRVKPIESIKEKMARRGITYATLEHDLQDIAGLRVMVQFVDDVKEVVDILHKRQDMRIIQERDYITHRKASGYRSYHVVVEYTVDTINGAKTILAEIQIRTLAMNFWATIEHSLNYKYQGDFPDEIKKRLEITARIAHQLDEEMGEIRDDIQEAQALFDPLSRKLNDGVGNSDDTDEEYR”, for which the protein production entry is on record as “not failed”.

Turning to “MTLITVVFVAFALLVIFYTNFMTHTLCERKQIAASRQPGVFRVINVCITILLISSYIEIIFHGK”, the protein production entry is recorded as “failed”.

Turning to “MTLKTFFNFTRIQTLPAALLSPIAGCLFAFWYFGSFHFWPTLLFFIGLASINLFVSAWNNLMDYQKALDPEYKKWNIIVAKSINPKLALNICLALLAIDVVVGLIVLFLTNLAILPIGGLCFLIAIFYTYGPFAFSRFPLGEILAGLCEGFFGFFLAVYINSYDKGYFFINFDRNWFMTWTWDFKILLPILLVGLMCFVQNFNIMFSDNICDLEQDIRNERYTLPYYLKIPLSLKVFTGLYLFAGLCILIAIALGILPIWSLLMSIIALKVIPNIKKFRAKQSKSETFHLQIDNLMLFNASLALTLLLGIIFK”, the protein production result is listed as “failed”.

For “MTLLEAISNAVANQDKVDSQSDYPIPLSHDGIFANLKPKLENPNLGTLVNPISGWGISESDVEVIDLGKKFSSKLKRKLKDTNGFVKDEFVKMLKQFLEKIGEKVGISEAESEMVLGDQAGSEIQILVEKNGFLMGRDVSGLVLKGCISLEMWELVEILISNSLVDHSSYSYLVSNLVEKQRSDLLCVVIKEASDLGATELLSILKYFLCPSKEAISTMAKVREEWESQAMLAIEKVSNTELSKKSKVAEEASILLMVAHDGFSTSELCLHYLLASRNVDEVMFASAVSKLNGNEMGSFIRYLSKWMKKYEMFPQAGPCPKAASKLGLKLCNWVPELTDITKCLGLLIDENFSTLVLYSDLHEELKSIARVADGLASESKLSCFVANVVESLKLGAARN”, the protein production entry was “failed”.

For the sequence “MTLLVGLGNPTLRYAHTRHNAGFDILDSLVSELDLSFTFSPKHNAFLCVYKDFIFLKPQTYMNLSGESVLSAKNFYKTKELLIVHDDLDLPLGVVRFKNGGGNGGHNGLKSIDLLCSNSYYRLRVGISKGIGVIEHVLSKFHKNEEPLKNAAFEHAKNALKFFIESHDFNAMQNRFTLKKPLKIES”, the protein production entry is listed as “failed”.

“MTLNRILWNYLIAPTVITIAVCGCTTQTPNTQDLIAQSPKDSQLVRTLSARSDSGYSVAYSPSSVGTILASAGAKSIKLWNPNTGKLLRTLSGQAFTVSFSPDGQILASGSQDGSLNLWDVQTGKLIRTLQHSEPVLGVVFSPDGQTLVSNLDLGSIIRLWNWRTGEIIRIKDDPDAYQKGFENFKTQPATFSLDGQTLFATSGSGSMLQSWNLKTSKRTGSFDAKSSINAVAISPDGNTLATGIRDNAIKLWNINDGKLIHTLTGHQGQVRTVAFSPDGTLLASGSSDGTVKLWNATTGKEINTFTAHKEQVWSVAFNPDGKTLASTGQDGSVKIWGVSPQ”: the protein production entry is reported as “failed”.

Consider “MTLQLNFGRVEDMNKSSLTTTALTILRVIAGFLFAAHGWQKFNEFTIAGTQASFTQMGVPGASAVAPIVATLELVGGIALIIGLLTRVFAALLAVNMLGALFLVHAPAGVFVGNGGYELVLLFAGAALALALAGAGRISADAALFGRQSSKLRVLA”, for which the protein production result is recorded as “failed”.

As for “MTLRPDPTFYPSAKLAMEGPVEKLAFTLMLSPDASKPDGLAVVDVDPTSEKFGQIVHQLIMPNKGDEFHHFGWNACSSALSPLTGHAFLERRYLIIPGIRSSRIYIVDVKEPLKAKIHKIIEPEEVFAKTGYSRPHTIHCGPEGIYVSTLGGGGEDGTDGPPGIFILDCETFEILGRYEMDRGEQTKHYDFWWNLPRDYMVSSEWGLPPQFENGIVPEDLLSNKYGHKIHFWKLRDRKNVQTIDLGANHQMALEIRPAHDPSKDYGFCGVVVDTTNLQGAIFTWWQKDDGTFEAKKTITIDPVPADADDLPDLLKGFGACPPLVTDIDLSLDDKYLYVACWGLGEMHQYDVSDPMNPVLTGKVEIGGIVKKTPHPNGKTFGYGPQMVEISRDGKRVYWTNSLYSTWDEQFYPGDRGAAMVMANVGENGGLTLDKDFWVDFPAGYRSHQIRLEGGDCSTDSFCYPSV”, the protein production result is “failed”.

Turning to “MTLSRSSADDSTNNANRSYSAVAGTDNKRKRDEDSSDYVGVAESLEMLKKQEIDADHMAASAQQTLISWRSGENSRSLSSSGECSSSNRPESTRLQIFVRMMSGGKTIVIHAEKYDTVEKLHQRIEWKTKIPALEQRVIYKGKQLQRENSLTYYSIEQDASLQLVARMQSTEHPVAWQTIDDIMYTISRMYKGENLQSNINEKIVTFFAMIPVESDESIAKYLNIFSNSSVPAALVMLYASSLERNKSCAKSSVKLFLSNCVALPKNQKNYCLPIVLEFCKLLRKVCPDQKLYVTCRNTLGSMLETFDNPHGVYNDQYETFGVEIFPFFTELTGLLLNELAQNSGPSFCDFQKVSSFWQQLRKVIELKVAFPIPIVLPMQSTALEAEIRHLHRLFGSLLTTMDLCMCRVESSLADKEVGNSETMSSSWSQYLSILKIINSMSNIYQGAKGQLAVMLNKNKVSFSALVVKFAKRGDDHQWIFEYKEATNFEARRHLAMLLFPDVKEDFEEMHEMLIDRSNLLSESFEYIVGASPEALHGGLFMEFKNEEATGPGVLREWFYLVCQEIFNPKNTLFLRSADDFRRFSPNPASKVDPLHPDFFEFTGRVIALALMHKVQVGVLFDRVFFLQLAGLKISLEDIKDTDRIMYNSCKQILEMDPEFFDSNAGLGLTFVLETEELGKRDTIELCPDGKLKAVNSKNRKQYVDLLIERRFATPILEQVKQFSRGFTDMLSHSVPPRSFFKRLYLEDLDGMLRGGENPISIDDWKAHTEYNGFKETDRQIDWFWKILKKMTEEEQRSILFFWTSNKFVPVEGFRGLSSKLYIYRLYEANDRLPLSHTCFYRLCIPRYPTITLMEQRLRLIAQDHVSSSFGKW”, the protein production result is recorded as “failed”.

For the sequence “MTLTRDSLLTLEAYAKVRRQEHARVIAHKKRRAVSIGNHLRLLFEDETTIRYQIHEMLHIEKIFDEDGIQAELDAYLPLVPDGSNLKATLQIEYENETQRRAALARLVGIEDRVFLRVDDEAPVYAIADEDLERDTAEKTSAVHFLRFELGDAMKAKLKAGAPLSIGCDHPHYPIQAARIDPDVAASLAGDLD”, the protein production result is given as “not failed”.

For the sequence “MTLTSGDKQGNTPGQASDTERWASLIGGGALVLLGLRQASLRGVLTALAGGGLIYQGATKQSTIQQAQEAIGINKPIKVEKTVTINKPADELYRYWHNFENLPTFMKHLKSVKVYNEKRSHWIANAPLGNSVEWDADILEDRENEFISWASAEGADVENSGFVRFQKAPGDVPGQAASRLRGTEVKVVLEYNLPGGALAAVVAKLFGEEPEQQIGDELRRFKMLMEAGEIATTEGQPSGRK”, the protein production entry is listed as “failed”.

On to “MTLVLILLALIAFIVLSTTRLKLHPFLALLAAALIAGFAYQVPTAEIVKTVTGGFGSILGYIGIVIVLGTIIGVILERSGAAITMAESVIRLLGERFPTLTMSIIGYLVSIPVFCDSGFVILNSLKNALAARMKISTIAMSVALATGLYATHTFVPPTPGPIAAAGNLGLDASLGLVIVVGLVVAFVTAMAGMWWANRFVGKDIPLVDDGQVVQTEEDFSELRARYGKLPSATQAFAPIFVPILLICLGSVAVFPSKPLGEGVLFACLNFLGQPVIALLVGLALACTLLKGQSKREEFHERVVEGIQSAAPILLITGAGGAFGAMLKITPLGDYLGSTLSALGIGLFMPFVVAAALKTAQGSTTVALVTTSALVAPLLPQLGLDSEMGRVLTVMAIGAGAMTVSHANDSFFWVVTQFSRMTVSTAYRAQTLATLVQGIAGMLAVWLLSLVLL”, for which the protein production entry is given as “failed”.

Turning to “MTLWQLIKAEIRSVLTNPVVTLTVFGGVVFYSFLYPLPYAQQTPREQPIAVVNLDGSQTSLKLERMVDATPQVKIVSRLHTVEDAKQAFLNREITGFLVIPEHFYKDVMLGKSPTLAYAADASYFLVYGTVVEGLAQAGGTLGAQVKVSKMVIEGVPLSLASHNYSAIKLNMKPTFNPTMGYIEYVVPAVFVLILQQTLIMAVGLQTGSQRHGRGYWSQVSTGSLLLVRTLVFIAIYYLLSAYYFGFSFERLSVNHIAKAGELLTMLFPFLLGCCGLGFWLGYLLPRRELVTLVVLVSSMPLIFLAGFIWPVESIPAPLLWIADLSPSTWSIKGFLALNQMGATWQQVAKHWTALWLLVALWGGVAYWIAKRNNKPVVTESLS”, the protein production result was “failed”.
